Results: PMC6900432, “Zinc binding regulates amyloid-like aggregation of GAPR-1” (Bioscience Reports, 2019)

Target: the molecule itself
Assay: non-reducing SDS/PAGE and Western blot of oligomers; 15 uM GAPR-1 with 37.5 uM heparin and 100 uM Zn2+ in NT-50 buffer (25 mM Tris, 50 mM NaCl, pH 7.4) at 37 C; aliquots at 0, 2, 7 and 20 h, non-reducing Laemmli buffer, boiled 5 min; blot with rabbit polyclonal anti-GAPR-1

B1: Golgi-Associated plant Pathogenesis Related protein 1 (GAPR-1), wild type (natural protein)
chain: MGKSASKQFHNEVLKAHNEYRQKHGVPPLKLCKNLNREAQQYSEALASTRILKHSPESSRGQCGENLAWASYDQTGKEVADRWYSEIKNYNFQQPGFTSGTGHFTAMVWKNTKKMGVGKASASDGSSFVVARYFPAGNVVNEGFFEENVLPPKK
notes: GAPR-1 (GLIPR-2), UniProt Q9H4G4 as printed; No tag is named; purification was by cation exchange; also called GAPR-1 WT; GLIPR-2; source: E. coli XL-1 Blue, purified (cation exchange, SP Sepharose FF)
B1: binds.
